Data published in PMC6673701, “Structure of Myosin VI/Tom1 complex reveals a cargo recognition mode of Myosin VI for tethering” (Nature Communications, 2019).

B1: Tom1(215–493) (domain or fragment, human, UniProt O60784-2 215-493, looked up)
chain: EQIGKLRSELEMVSGNVRVMSEMLTELVPTQAEPADLELLQELNRTCRAMQQRVLELIPQIANEQLTEELLIVNDNLNNVFLRHERFERFRTGQTTKAPSEAEPAADLIDMGPDPAATGNLSSQLAGMNLGSSSVRAGLQSLEASGRLEDEFDMFALTRGSSLADQRKEVKYEAPQATDGLAGALDARQQSTGAIPVTQACLMEDIEQWLSTDVGNDAEEPKGVTSEGKFDKFLEERAKAADRLPNLSSPSAEGPPGPPSGPAPRKKTQEKDDDMLFAL
notes: source: E. coli BL21 (DE3), purified (Ni-NTA, SEC); not shown: thioredoxin, N-terminal, cleaved; His6, N-terminal, cleaved
B2: Tom1(437–493) (domain or fragment, human, UniProt O60784-2 437-493, looked up)
chain: GVTSEGKFDKFLEERAKAADRLPNLSSPSAEGPPGPPSGPAPRKKTQEKDDDMLFAL
notes: as for B1
B3: Tom1(437–463), Myosin VI-binding motif (domain or fragment, human, UniProt O60784-2 437-463, looked up)
chain: GVTSEGKFDKFLEERAKAADRLPNLSS
notes: monomer by light scattering and ultracentrifugation; also called Tom1 MBM; source: E. coli BL21 (DE3), purified (Ni-NTA, SEC); not shown: thioredoxin, N-terminal, cleaved; His6, N-terminal, cleaved
B4: Tom1(392–493) (domain or fragment, human, UniProt O60784-2 392-493, looked up)
chain: TDGLAGALDARQQSTGAIPVTQACLMEDIEQWLSTDVGNDAEEPKGVTSEGKFDKFLEERAKAADRLPNLSSPSAEGPPGPPSGPAPRKKTQEKDDDMLFAL
notes: 15N-labelled in one NMR titration; source: E. coli BL21 (DE3), purified (Ni-NTA, SEC); not shown: thioredoxin, N-terminal, cleaved; His6, N-terminal, cleaved
B5: Tom1(392–463) (domain or fragment, human, UniProt O60784-2 392-463, looked up)
chain: TDGLAGALDARQQSTGAIPVTQACLMEDIEQWLSTDVGNDAEEPKGVTSEGKFDKFLEERAKAADRLPNLSS
notes: as for B4
B6: C-terminal cargo-binding domain (CBD) of Myosin VI (residues 1157–1285) (domain or fragment, human, UniProt Q9UM54-1 1157-1285, looked up)
chain: ARQREIEMNRQQRFFRIPFIRPADQYKDPQSKKKGWWYAHFDGPWIARQMELHPDKPPILLVAGKDDMEMCELNLEETGLTRKRGAEILPRQFEEIWERCGGIQYLQNAIESRQARPTYATAMLQSLLK
notes: monomer by light scattering and ultracentrifugation; 15N-labelled in some NMR experiments; also called C-terminal CBD of Myosin VI; source: E. coli BL21 (DE3), purified (Ni-NTA, SEC); not shown: thioredoxin, N-terminal, cleaved; His6, N-terminal, cleaved

molecular target: B6; assay: ITC; 25 °C, 20 mM Tris pH 7.9, 100 mM NaCl, 1 mM DTT; 50 µM protein in the cell, 500 µM in the syringe; one-site binding model; conditions: both partners purified

Row | dH | stoichiometry N | Kd | Binder
1 | -7.61 ± 0.09 kcal/mol | 1.44 ± 0.01 |  | B1
2 | -12.7 ± 0.11 kcal/mol | 0.83 ± 0.01 | 760 nM | B2
3 | -14.9 ± 0.1 kcal/mol | 0.74 ± 0.01 | 670 nM | B3
4 | -9.9 ± 0.11 kcal/mol | 1.12 ± 0.01 | 930 nM | B4
5 | -10.6 ± 0.16 kcal/mol | 0.91 ± 0.01 | 760 nM | B5

molecular target: B1; assay: as above; conditions: both partners purified

Row | Kd | Binder
6 | 2130 nM | B6

molecular target: B6; assay: SEC + SEC-MALS + AUC; analytical gel filtration, multi-angle light scattering (20 mM Tris-HCl pH 7.9, 100 mM NaCl, 1 mM DTT) and sedimentation velocity (20 °C) of each protein alone and of the complex; conditions: both partners purified

Row | stoichiometry N | Binder
7 | 1 | B3
